Laboratory results as given in paper PMC7504102.

Target: unfused negative control SGFP2
Test: pull-down; SGFP2-fused proteins held on protein G magnetic beads via anti-GFP pAb; incubated with Nluc-ALG-2 (300 ng/mL) in buffer HKM, 0.2% Nonidet P-40, 0.1% gelatin, 100 μM CaCl2, 2 h, 4 °C; bound luciferase activity relative to Sec31A-p (100%)

Sequence of nanoluciferase (NanoLuc, Nluc)-fused ALG-2 (O75340 whole entry, the tested form may be a part): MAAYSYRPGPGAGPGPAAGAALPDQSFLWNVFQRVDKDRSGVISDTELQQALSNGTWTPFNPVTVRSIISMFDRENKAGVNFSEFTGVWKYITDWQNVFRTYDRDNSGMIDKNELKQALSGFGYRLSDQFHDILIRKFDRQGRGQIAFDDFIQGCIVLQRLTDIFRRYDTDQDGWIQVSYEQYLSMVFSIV

nanoluciferase (NanoLuc, Nluc)-fused ALG-2 (from UniProt O75340 1-191) (natural protein)
binding activity relative to Sec31A-p (100%): 0.18%
